According to patent US8097440B1, “Engineered microorganisms capable of producing target compounds under anaerobic conditions” (Gevo, Inc., priority 2008, dated 2012):
Residue numbers refer to the chain shown, from its start. Names may count otherwise.

Experiments:
Assay type in all cases: biochemical, E. coli
[1] = substrate: NC(=O)C1=CN([C@@H]2O[C@H](COP(=O)(O)OP(=O)(O)OC[C@H]3O[C@@H](n4cnc5c(N)ncnc54)[C@H](OP(=O)(O)O)[C@@H]3O)[C@@H](O)[C@H]2O)C=CC1; test: KARI cuvette assay, purified Ec_IlvC^B8A71S-his6; conditions: other: purified; acetolactate as substrate
Procedure: (§1) KARI cuvette assay: KARI activity was assayed kinetically by monitoring the decrease in NAD(P)H concentration by measuring the absorbance at 340 nm. A reaction buffer was prepared containing 250 mM potassium phosphate pH 7, 1 mM DTT and 10 mM MgCl2. Cell pellets were resuspended (0.25 g wet weight/mL buffer) in 250 mM potassium phosphate (KPi) buffer containing 1 mM DTT and 10 mM MgCl2. The resuspended cells were lysed by sonication for 1 min with a 50% duty cycle and pelleted at 11000×g and 4° C. for 15 min. A reaction mixture consisting of 910 μl reaction buffer, 50 μl acetolactate, and 20 μl lysate was prepared in a cuvette. The reaction was initiated by addition of 20 μL of 10 mM NAD(P)H. A substrate free control was conducted using reaction buffer without the addition of acetolactate.
(§2) Purification of KARI: Cell pellets used for purification were resuspended in purification buffer A (20 mM Tris, 20 mM imidazol, 100 mM NaCl, 10 mM MgCl2, pH 7.4). KARI was purified by IMAC (Immobilized metal affinity chromatography) over a 1 ml Histrap High Performance (histrap HP) column pre-charged with Nickel (GE Healthcare) using an Akta FPLC system (GE Healthcare). The column was equilibrated with four column volumes (cv) of buffer A. After injecting the crude extract, the column was washed with buffer A for 2 cv, followed by a wash step with a mixture of 10% elution buffer B (20 mM Tris, 300 mM imidazol, 100 mM NaCl, 10 mM MgCl2, pH 7.4) for 5 cv. KARI variants were eluted at 40% buffer B and stored at 4° C.
(§3) As a next step, the gene encoding variant Ec_llvC^Q110V-his6 (SEQ ID NO: 23) was used as template to generate individual combinations of the mutation Q110V with other mutations: R68L, A71T, A71S, R76G, R76S, R76T, S78D, and R76D. After screening the variants as described above, the most promising ones were expressed, purified, and characterized. Table 29 lists the KM values in μM on NADPH and NADH for Ec_llvC^his6, Ec_llvC^Q110V-his6, and variants of Ec_llvC^Q110V-his6. […] The A71S mutation was introduced into Ec_llvC^B8-his6 resulting in a variant Ec_llvC^B8A71S-his6, which yielded 44% catalytic efficiency on NADH compared to the catalytic efficiency of wild-type KARI on NADPH (FIG. 19 and Table 30).

[2] = substrate: NC(=O)C1=CN([C@@H]2O[C@H](COP(=O)(O)OP(=O)(O)OC[C@H]3O[C@@H](n4cnc5c(N)ncnc54)[C@H](O)[C@@H]3O)[C@@H](O)[C@H]2O)C=CC1; test: KARI cuvette assay, purified Ec_IlvC^B8A71S-his6
Procedure: as §1, §2, §3

[3] = substrate: NC(=O)C1=CN([C@@H]2O[C@H](COP(=O)(O)OP(=O)(O)OC[C@H]3O[C@@H](n4cnc5c(N)ncnc54)[C@H](OP(=O)(O)O)[C@@H]3O)[C@@H](O)[C@H]2O)C=CC1; test: KARI cuvette assay, purified Ec_IlvC^his6 (parent / wild type); conditions: other: purified; acetolactate as substrate
Procedure: as §1, §2
(§4) The three best variants Ec_llvC^S78D-his6, Ec_llvC^Q110A-his6, and Ec_llvC^Q110V-his6 were characterized according to their specific activities [U/mg], kcat values [s^−1], catalytic efficiencies [M^−1*s^−1] (FIG. 18), and KM values (Table 27).
(§5) Only 20% of the enzymes of the recombination library were active on NADH. After screening 1,000 clones using the NADH depletion assay at 340 nm, 26 KARI variants were selected for a rescreen by the high-throughput assay described in Example 14 and eight thereof were expressed in 25 ml LBamp medium in shake flasks according to the protocol for cell growth and protein expression in shake flasks as described in Example 14, purified according to the protocol for purification of KARI enzymes as described in Example 14, and NAD(P)H depletion at 340 nm was measured again. […] The KM values of variants Ec_llvC^2H10-his6 and Ec_llvC^6E6-his6 were measured and the catalytic efficiencies were calculated.

[4] = substrate: NC(=O)C1=CN([C@@H]2O[C@H](COP(=O)(O)OP(=O)(O)OC[C@H]3O[C@@H](n4cnc5c(N)ncnc54)[C@H](O)[C@@H]3O)[C@@H](O)[C@H]2O)C=CC1; test: as above
Procedure: as §1, §2, §4, §5

[5] = substrate: NC(=O)C1=CN([C@@H]2O[C@H](COP(=O)(O)OP(=O)(O)OC[C@H]3O[C@@H](n4cnc5c(N)ncnc54)[C@H](OP(=O)(O)O)[C@@H]3O)[C@@H](O)[C@H]2O)C=CC1; test: KARI assay, purified Ec_IlvC^2H10-his6; conditions: other: purified; acetolactate as substrate
Procedure: as §1, §2, §5

[6] = substrate: NC(=O)C1=CN([C@@H]2O[C@H](COP(=O)(O)OP(=O)(O)OC[C@H]3O[C@@H](n4cnc5c(N)ncnc54)[C@H](O)[C@@H]3O)[C@@H](O)[C@H]2O)C=CC1; test: KARI assay, purified Ec_IlvC^2H10-his6; conditions: other: purified; acetolactate as substrate
Procedure: as §1, §2, §5

[7] = substrate: NC(=O)C1=CN([C@@H]2O[C@H](COP(=O)(O)OP(=O)(O)OC[C@H]3O[C@@H](n4cnc5c(N)ncnc54)[C@H](OP(=O)(O)O)[C@@H]3O)[C@@H](O)[C@H]2O)C=CC1; test: KARI assay, purified Ec_IlvC^6E6-his6; conditions: other: Example 15, expressed in E. coli BL21(DE3), purified; 30.0 °C
Procedure: as §1, §2, §5
(§6) Improved variants were expressed and purified from GEVO1186. 20 mL SC-URA medium overnight cultures were grown at 30° C. and 250 rpm in 250 mL flasks and were then used to inoculate 96 well deep well plates on the next morning. 50 μL of the overnight cultures were transferred into 600 μL SC-URA medium per well. The plates were then grown at 30° C. and 250 rpm in a humidified plate shaker for 8 h. In order to the harvest, the cultures were transferred into 50 mL Falcon tubes and then spun down at 4° C. and 5,000 rpm for 10 min. The pellets were frozen until they were processed and purified as described in Example 14 above.

[8] = substrate: NC(=O)C1=CN([C@@H]2O[C@H](COP(=O)(O)OP(=O)(O)OC[C@H]3O[C@@H](n4cnc5c(N)ncnc54)[C@H](O)[C@@H]3O)[C@@H](O)[C@H]2O)C=CC1; test: KARI assay, purified Ec_IlvC^6E6-his6; conditions: 30.0 °C
Procedure: as §1, §2, §5, §6

[9] = other: purified, acetolactate as substrate
[10] = other: Example 15, expressed in E. coli BL21(DE3), purified
[11] = other: Example 16, expressed in yeast GEVO1186, purified

B1: E. coli KARI Ec_IlvC variant Ec_IlvC^B8A71S-his6 (Q110V, S78D, A71S), SEQ ID NO: 29 (Escherichia coli K-12; A71S/Q110V/S78D) (protein)
chain: MANYFNTLNLRQQLAQLGKCRFMGRDEFADGASYLQGKKVVIVGCGAQGLNQGLNMRDSGLDISYALRKESIAEKRADWRKATENGFKVGTYEELIPQADLVINLTPDKVHSDVVRTVQPLMKDGAALGYSHGFNIVEVGEQIRKDITVVMVAPKCPGTEVREEYKRGFGVPTLIAVHPENDPKGEGMAIAKAWAAATGGHRAGVLESSFVAEVKSDLMGEQTILCGMLQAGSLLCFDKLVEEGTDPAYAEKLIQFGWETITEALKQGGITLMMDRLSNPAKLRAYALSEQLKEIMAPLFQKHMDDIISGEFSSGMMADWANDDKKLLTWREETGKTAFETAPQYEGKIGEQEYFDKGVLMIAMVKAGVELAFETMVDSGIIEESAYYESLHELPLIANTIARKRLYEMNVVISDTAEYGNYLFSYACVPLLKPFMAELQPGDLGKAIPEGAVDNGQLRDVNEAIRSHAIEQVGKKLRGYMTDMKRIAVAGLEHHHHHH
- Km [1]: 63.4 µM
- kcat [1]: 2.4 s⁻¹
- kcat/Km [1]: 37,459 M^−1 * s^−1
- Km [2, 9]: 53.5 µM
- kcat [2, 9]: 2.0 s⁻¹
- kcat/Km [2, 9]: 38,330 M^−1 * s^−1
- kcat/Km ([2]; with NADH): 37500 M⁻¹ s⁻¹

B2: Escherichia coli KARI (ketol-acid reductoisomerase) Ec_IlvC^his6, wild type IlvC (SEQ ID NO: 13) with his6-tag, SEQ ID NO: 15 (Escherichia coli K-12) (protein)
chain: B1 chain with S71A, D78S, V110Q
- Km [3]: 41 µM
- kcat [3]: 3.6 s⁻¹
- kcat/Km [3]: 87300 M⁻¹ s⁻¹
- Km [4, 9]: 1,075 μM
- kcat [4, 9]: 1.0 s⁻¹
- kcat/Km [4, 9]: 1,000 M^−1 * s^−1
- kcat/Km ([4]; with NADH): 87300 M⁻¹ s⁻¹

B3: E. coli KARI Ec_IlvC variant Ec_IlvC^2H10-his6 (A71S, R76D, S78D, Q110A), SEQ ID NO: 31 (Escherichia coli K-12; A71S/Q110A/R76D/S78D) (protein)
chain: B1 chain with R76D, V110A
notes: T37 values cited for the gene on pGV1976
- Km [5]: 568 µM
- kcat [5]: 0.61 s⁻¹
- kcat/Km [5]: 1,078 M^−1 * s^−1
- Km [6]: 44.2 µM
- kcat [6]: 2.6 s⁻¹
- kcat/Km [6]: 60322 M⁻¹ s⁻¹

B4: E. coli KARI Ec_IlvC variant Ec_IlvC^6E6-his6 (A71S, R76D, S78D, Q110V), SEQ ID NO: 34 (Escherichia coli K-12; A71S/Q110V/R76D/S78D) (protein)
chain: B1 chain with R76D
notes: T37 values cited for the gene on pGV1975
- Km [7]: 653 µM
- kcat [7]: 0.2 s⁻¹
- kcat/Km [7]: 386 M⁻¹ s⁻¹
- Km [8, 10]: 31.6 µM
- kcat [8, 10]: 2.3 s⁻¹
- kcat/Km [8, 10]: 74045 M⁻¹ s⁻¹
- Km [8, 11]: 39 µM
- kcat [8, 11]: 2.4 s⁻¹
- kcat/Km [8, 11]: 63,000 M^−1 * S^−1
